± gives the standard deviation of the averaged measurements.
The sequences below were run on ATP (assay: switch fluorescence ratio, 500 uM ATP over buffer (Cy3 cluster intensity, sum of 5 cycles each) (fold (ratio)); higher = stronger signal-on switching upon ATP binding; sequences stand for … in TCGTCGGCAGCGTCAGATGTGTATAAGAGACAGTTTTTTTTTTTTTTTTTTTTTTTTT…TC). Settings: aptamer strand: ATP DNA aptamer (quencher-CACCTGGGGGAGTATTGCGGAGGAAGG + anchor), 100 nM annealed; ATP concentration: 500 uM.
Procedure, shortened: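 Values give the fluorescence ratio for each switch-domain sequence, averaged from per-cluster ratios of summed target-cycle to summed buffer-cycle Cy3 intensity. The Cy3-labelled switching-strand clusters sat on a modified Illumina MiSeq flow-cell, were annealed to 100 nM quencher-labelled ATP aptamer, and were imaged in selection buffer, then after 15 min with 500 uM ATP at 22 °C. Five cycles ran with NaOH stripping and re-annealing between them, and clusters outside 100-1000 RFU were excluded.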
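Further: ATP exposure 15 min at 22 °C before imaging.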

| Sequence | switch fluorescence ratio |
| --- | --- |
| ACGGCATTAT | 1.164 ± 0.0042 |
| GTTTGAGTCT | 1.01 ± 0.028 |
| CGGGTCTAGC | 1.01 ± 0.021 |
| AGATATCTA | 0.985 ± 0.023 |
| TTTAGGGCGG | 0.994 ± 0.017 |
| AATTTTTGGG | 0.994 ± 0.03 |
| GTTATTTACT | 1.024 ± 0.0033 |
| AAGGGGGTAA | 0.977 ± 0.012 |
| AAGTGTATGG | 0.997 ± 0.0098 |
| CGATGTGCTT | 1.01 ± 0.024 |
| CTTGGAGTTA | 0.997 ± 0.025 |
| ACATTATTTT | 1.02 ± 0.025 |
| ACTGTTCAGC | 0.9948 ± 0.0062 |
| GGACGCATGG | 1.33 ± 0.071 |
| GGCCAAGTTG | 0.994 ± 0.017 |
| TTTATGTCGT | 0.986 ± 0.038 |
| CGCGAAGGCT | 1.04 ± 0.015 |
| TATGGTGTGG | 0.967 ± 0.024 |
| TTAATGAATT | 0.994 ± 0.014 |
| TTCTTTAGAA | 1.03 ± 0.046 |
| GGGCAATGCT | 3.33 ± 3.1 |
| ATGACCTCTT | 0.985 ± 0.034 |
| CGGCTATGTG | 0.985 ± 0.027 |

| Sequence | switch fluorescence ratio |
| --- | --- |
| GAAATTTTGC | 0.995 ± 0.033 |
| TGGTAAAAGG | 0.991 ± 0.038 |
| TGACGGCTGG | 1.026 ± 0.0044 |
| TTGAGGTGGG | 1.23 ± 0.41 |
| CCGTTGAGGG | 1.01 ± 0.086 |
| ATCTCTGGTT | 0.966 ± 0.031 |
| TGTTGGTGGT | 0.988 ± 0.036 |
| TTTGAGGTCG | 1.06 ± 0.063 |
| AGCTCTGCGA | 1.09 ± 0.039 |
| TGGGAGAGT | 1.011 ± 0.0034 |
| TGATGCAATT | 1.36 ± 0.24 |
| TGGGGTAGC | 0.9979 ± 0.0088 |
| GTCTTAACGA | 0.981 ± 0.015 |
| TAGTGATACG | 0.986 ± 0.05 |
| GGGTTTATGA | 0.98 ± 0.04 |
| GGTGGGGGTG | 0.998 ± 0.031 |
| TTGCGATTTT | 0.993 ± 0.028 |
| ATTGGGTTTG | 1.01 ± 0.021 |
| ATAGGGGACG | 1.01 ± 0.049 |
| AAAAATGAGA | 0.998 ± 0.043 |
| CGTGTTGGAG | 0.969 ± 0.011 |
| AATTAATGCA | 1.01 ± 0.038 |
| GCGTCCACCA | 1.03 ± 0.067 |

| Sequence | switch fluorescence ratio |
| --- | --- |
| TTACCCATTT | 1.1 ± 0.085 |
| GAAAAAGATT | 0.999 ± 0.017 |
| GATGTGGTAA | 1.01 ± 0.012 |
| CATGAATAG | 0.994 ± 0.011 |
| GTGATCGGGT | 1.02 ± 0.015 |
| GACGGGCAGG | 1.027 ± 0.0056 |
| ATATGAGTGC | 0.951 ± 0.07 |
| CTGGAATTCA | 1.02 ± 0.049 |
| TGGATCAGAG | 0.9984 ± 0.0013 |
| TGTTATATGT | 1.01 ± 0.012 |
| TATAAAATGT | 0.993 ± 0.036 |
| AAGATTTAGG | 1.01 ± 0.063 |
| TCCAGACAGT | 0.984 ± 0.026 |
| ATTAATTGTT | 0.993 ± 0.012 |
| TGACCGGGGG | 1.0571 ± 5.2e-05 |
| GGGGTTTGAA | 0.984 ± 0.016 |
| CTGGTGTGGC | 0.982 ± 0.028 |
| GCAGAAGTAC | 2.37 ± 0.075 |
| TCAAAGCGGA | 1.01 ± 0.046 |
| CACTGGGTGT | 1.24 ± 0.021 |
| GAGGTAAGGT | 1 ± 0.015 |
| CGTACAGCAG | 1.01 ± 0.054 |
| ATTTGGGCTG | 0.999 ± 0.015 |

| Sequence | switch fluorescence ratio |
| --- | --- |
| GGTGCTAGTG | 0.999 ± 0.015 |
| TGGGGATAAT | 1.01 ± 0.028 |
| GTTTTTGAGT | 1.016 ± 0.0031 |
| TTTAGCATGG | 1.01 ± 0.047 |
| TTGGGCTTGA | 1.01 ± 0.056 |
| TTTGGCGGGG | 0.999 ± 0.04 |
| TAGTCGGCGC | 1 ± 0.047 |
| AAACTGGGGC | 1.12 ± 0.022 |
| AGGGCTTGAA | 0.991 ± 0.018 |
| AGTCATGTGG | 1.01 ± 0.019 |
| GAGTTGGGGT | 0.986 ± 0.018 |
| GTCAGTGGCT | 0.998 ± 0.018 |
| AGAGCGGGGG | 1.02 ± 0.038 |
| TTCTGGGTTT | 1.01 ± 0.025 |
| AGGAGAGGAT | 1.14 ± 0.28 |
| TTAGAGGTTG | 1.13 ± 0.21 |
| TGTGTTTACT | 0.991 ± 0.022 |
| ATTTTGGACC | 1 ± 0.021 |
| ATTTATTCCG | 1.01 ± 0.032 |
| TGCATTTGGG | 0.9893 ± 0.0031 |
| GTTTTAGAGT | 0.989 ± 0.02 |
| AAGGACTATT | 1.03 ± 0.011 |
| ATTTGGAAGT | 1.02 ± 0.018 |

| Sequence | switch fluorescence ratio |
| --- | --- |
| CCACAAGGGG | 1.02 ± 0.019 |
| GGGTTGTCGT | 1.01 ± 0.062 |
| GGTCTAGTCC | 1.018 ± 0.0034 |
| CAGTGATTAT | 1.01 ± 0.018 |
| CACAGGAGGG | 1.03 ± 0.019 |
| TTTCAAATCA | 1.01 ± 0.037 |
| CGCACGGTAG | 1.05 ± 0.032 |
| CTGTTGAGGG | 1 ± 0.027 |
| ACCTTAGTAT | 1.02 ± 0.022 |
| TTCTATACAT | 1.04 ± 0.054 |
| GCGTTGTTTG | 0.958 ± 0.042 |
| TATTGGTGGT | 0.995 ± 0.027 |
| CAGGGATTGA | 0.998 ± 0.0049 |
| AGATGAGGGA | 1.02 ± 0.032 |
| TGTGGTTTTT | 1.01 ± 0.031 |
| TTGCACACGC | 1.26 ± 0.08 |
| GTTGGGGATT | 0.977 ± 0.016 |
| ACGTTGGTGG | 1 ± 0.012 |
| GGCCGGCAGG | 0.972 ± 0.024 |
| AGGGTCGGCT | 0.993 ± 0.02 |
| CGTTGTTTGG | 0.966 ± 0.058 |
| CTTTTTGTTT | 1.01 ± 0.041 |
| TTCATTTGAG | 0.995 ± 0.021 |

| Sequence | switch fluorescence ratio |
| --- | --- |
| CAAATATTTT | 0.996 ± 0.017 |
| ACCCAGACGC | 1.35 ± 0.058 |
| CGGGTTTGGA | 0.998 ± 0.035 |
| TTAGTCTGGG | 1 ± 0.039 |
| AAATTTTTGT | 1.001 ± 0.0065 |
| GGATTTAGAA | 0.975 ± 0.032 |
| TTCAGAGTTT | 0.978 ± 0.014 |
| TAATATTTCG | 1.05 ± 0.04 |
| AGGTGTAAGG | 1.01 ± 0.051 |
| TTGGGTGTTT | 1.06 ± 0.035 |
| TCACCCGTTT | 0.993 ± 0.016 |
| CGTATATTAG | 0.96 ± 0.014 |
| ACAGAGGGTG | 1.08 ± 0.095 |
| TCAGCGGGTT | 1.04 ± 0.12 |
| GGCCGGGAAT | 0.9941 ± 0.0028 |
| GCGTAGAGCG | 0.9878 ± 0.0012 |
| CATAATTAGT | 0.994 ± 0.018 |
| CTTTACTAGG | 1.016 ± 0.0052 |
| GCTTTTCGAT | 0.994 ± 0.035 |
| ACGGCTGCGG | 0.987 ± 0.035 |
| TATCCGACAT | 1.15 ± 0.039 |
| TTTGTGGGCG | 0.932 ± 0.021 |
| GGATTTAGGC | 0.977 ± 0.029 |

| Sequence | switch fluorescence ratio |
| --- | --- |
| CTACTTGAGT | 0.985 ± 0.019 |
| CGATAGTATT | 0.9854 ± 0.0063 |
| ATTACTAGGA | 1 ± 0.057 |
| ATGCAAAGGA | 1 ± 0.043 |
| TGTAAAGGCG | 0.953 ± 0.039 |
| TTTCTTTTGG | 1.1 ± 0.09 |
| TTTAGAGTGC | 1 ± 0.093 |
| ATGGGGAGTT | 0.972 ± 0.022 |
| AAGGTAGCGC | 0.974 ± 0.059 |
| AGGTTCAAAT | 0.996 ± 0.044 |
| CAATGTGGGA | 1.01 ± 0.021 |
| TAAGGAGTAA | 1.034 ± 0.01 |
| TTAATATAAG | 1.02 ± 0.021 |
| TATGTTCGAG | 0.968 ± 0.033 |
| ATGCTCGGGG | 1 ± 0.015 |
| CAGAGGGGAG | 1.03 ± 0.027 |
| TGGGGGAGCA | 0.9811 ± 0.0094 |
| GGGAAAGATG | 0.986 ± 0.042 |
| ATGAAAAGTT | 0.993 ± 0.011 |

Reference: the supplement of paper PMC10126150
